The text below walks through data of patent US20240124585A1 (SUTRO BIOPHARMA, published 2024).

One may read the EC50 as the concentration giving half of the maximal effect. In general, Kd refers to the free concentration of one partner at which half of the binding sites on the other are occupied at equilibrium, for simple one-to-one binding. Low values mean tighter binding, high ones weaker binding. Usually koff stands for a measure of how fast the partners let go of each other. High values mean a short-lived complex, low ones a long-lived complex.

Assay [1] addresses T1, EpCAM on NCI-H1975 cells (UniProt P16422 24-314, limits assumed).
T1 sequence (looked up): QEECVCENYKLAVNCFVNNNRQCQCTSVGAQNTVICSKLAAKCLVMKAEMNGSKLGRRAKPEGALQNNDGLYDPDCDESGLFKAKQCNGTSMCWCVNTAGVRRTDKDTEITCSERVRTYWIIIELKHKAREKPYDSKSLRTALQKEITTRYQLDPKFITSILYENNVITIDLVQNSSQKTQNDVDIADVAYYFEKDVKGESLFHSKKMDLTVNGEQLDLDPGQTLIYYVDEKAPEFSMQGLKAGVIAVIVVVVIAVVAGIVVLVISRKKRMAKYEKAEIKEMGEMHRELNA
The assay is described as follows: cell-based or functional assay.

The target of assay [2] is T1, EpCAM on NCI-H1975 cells. The assay is described as follows: cell-based or functional assay. This is another data set of the same source.
For assay [3], the target named is T2, human CD3 epsilon (Acro Cat #CDE-H5223) (human, UniProt P07766 23-126).
T2 construct: Bought recombinant protein; also called rhCD3E
The assay can be described thus: ELISA, coated antigen.

For a further assay, the target named is T3, cynomolgus CD3 epsilon (cynomolgus monkey, UniProt Q95LI5 22-117, limits assumed).
T3 construct: Recombinant protein; also called cyno CD3E
T3 sequence: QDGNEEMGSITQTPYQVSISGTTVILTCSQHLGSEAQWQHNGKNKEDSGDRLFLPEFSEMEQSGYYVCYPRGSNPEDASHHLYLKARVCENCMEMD
The assay is described as follows: ELISA, coated antigen.

The next assay concerns the target CD3-GE. The assay is described as follows: ELISA, coated antigen. (In general: An ELISA detects its analyte on a solid surface through an enzyme-linked reagent.)
Assay [4] has as its target T4, human CD3 on T-cell lines (CD3-expressing Jurkat cells; HUT78 cells) (human, UniProt P07766 23-207).
T4 construct: On cells it stands in the CD3/TCR complex
The assay is described as follows: flow cytometry; signal on CD3+ Jurkat over CD3- Jurkat RT3-T3.5 cells. How it is done: A high-throughput primary screen was performed to rapidly assess cell binding of antibodies produced in small-scale (60 μL) cell-free reactions. In this screen, four components are combined in equal volumes to a final volume of 100 μL/well in a U-bottom 96-well plate (Greiner Cat #650201) or flat bottom 384 well plate (Greiner Cat #781201). […] Plates are then incubated on ice for one hour. Cells are pelleted by spinning at 1500×g for 5 minutes and resuspended in assay buffer. High-throughput flow cytometry is then performed on resuspended cells on a FACS instrument (BD Biosciences FACS Canto II or BD Biosciences LSR II) and data is analyzed with FlowJo software. Antibody binding is assessed by the proportional level of secondary antibody signal (presumably due to binding to our antibody of interest) on Jurkat CD3-positive cells compared to the signal on Jurkat RT3.T3.5 CD3-negative cells.
(In general: Flow cytometry measures light scatter and fluorescence of single cells or particles in a stream.)

The target of assay [5] is T4, human CD3 on T-cell lines …. The assay can be described thus: flow cytometry, Jurkat cells.
The target in assay [6] is T5, cynomolgus CD3 delta-epsilon heterodimer (Acro Cat #CDD-C52W4) (cynomolgus monkey, UniProt Q95LI8 22-105).
T5 construct: Bought; also called cyCD3DE
The assay is described as follows: single-point ELISA; signal on cyCD3DE over Fc. How it is done: (§1) Following small-scale cell-free protein synthesis (60 μL reactions), each reaction was diluted 1:50 and tested for binding to CD3 protein by ELISA. Briefly, human CD3 delta-epsilon-Fc heterodimer (CD3DE-Fc, Acro Biosystems, Cat #CDD-H52WO), cynomolgus CD3 delta-epsilon heterodimer (CD3DE, Acro Cat #CDD-C52W4) and human IgG1 Fc (Acro Biosystems, Cat #FCC-H5214) were coated to 384-well Maxisorp plates in 0.2M sodium bicarbonate-carbonate pH 9.4 and blocked with […] in PBST (phosphate buffer saline, […], diluted from Teknova Cat #P2192). Antibodies expressed in CF were diluted 1:50 in 0.20% BSA in PBST and were incubated on the […] plates, washed, and detected with HRP-conjugated anti-human Fab antibodies (Jackson ImmunoResearch, West Grove, PA) and Pierce Pico Supersignal ELISA substrate (ThermoFisher Scientific).

Assay [7] deals with T2, human CD3 epsilon (Acro Cat #CDE-H5223). The assay can be described thus: SPR (Biacore), scFvFc captured, rhCD3E analyte. How it is done: Anti-Fab or anti-Fc polyclonal antibodies were immobilized onto a CM5 chip (GE Life Sciences) using amine coupling chemistry (from Amine Coupling Kit, GE Life Sciences). The immobilization steps were carried out at a flow rate of 25 μl/min in 1×HBS-EP+ buffer (GE Life Sciences; 10× Stock diluted before use). The sensor surfaces were activated for 7 min with a mixture of NHS (0.05 M) and EDC (0.2 M). The Anti-Fab or Anti-Fc antibodies were injected over all 4 flow cells at a concentration of 25 μg/mL in 10 mM sodium acetate, pH 4.5, for 7 min. Ethanolamine (1 M, pH 8.5) was injected for 7 min to block any remaining activated groups.
Off-rate and kinetic binding experiments were performed at 25° C. using 1×HBS-EP+ buffer. Test and control antibodies were injected over the anti-Fab or anti-Fc surface at concentrations of 5-10 μg/mL for 12 seconds at a flow rate of 10 μL/min on flow cells 2, 3 and 4, followed by a buffer wash for 30 seconds at the same flow rate. […] After capturing ligand (antibody) on the anti-Fc or anti-Fab surface, the analyte (human CD3 epsilon, Acro Cat #CDE-H5223) was bound for 180 seconds, followed by a 600 second dissociation phase at a flow rate of 50 μL/min. Between each ligand capture and analyte binding cycle, regeneration was carried out using two injections of 10 mM Glycine pH 2.0 for 30 seconds at 30 μL/min, followed by a 30 second buffer wash step.
The data was fit with the Biacore T200 Evaluation software, using a 1-1 Langmuir binding model. KD (affinity, nM) was determined as a ratio of the kinetic rate constants calculated from the fits of the association and dissociation phases.
For orientation: Surface plasmon resonance follows binding to a sensor surface in real time, without labels.

Assay [8] addresses T6, human CD3 delta-epsilon-Fc heterodimer (Acro Biosystems, Cat #CDD-H52WO) (human, UniProt P04234 22-105).
T6 construct: Bought; also called CD3DE-Fc; huCD3DE-Fc; not shown: Fc
The assay is described as follows: single-point ELISA; signal on huCD3DE-Fc over Fc. How it is done: as §1

T6 sequence (chain, as listed by the source mutant, chain 1 of 2): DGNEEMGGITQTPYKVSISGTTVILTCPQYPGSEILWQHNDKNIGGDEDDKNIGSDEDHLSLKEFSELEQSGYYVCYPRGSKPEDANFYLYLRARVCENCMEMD
T6 sequence (P04234 22-105, stated change not applied, chain 2 of 2): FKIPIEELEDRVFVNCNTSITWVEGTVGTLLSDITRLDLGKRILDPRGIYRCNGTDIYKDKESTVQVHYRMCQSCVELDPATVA
T2 sequence (P07766 23-126 limits assumed): as the sequence (chain, as listed by the source mutant, chain 1 of 2) above
T4 sequence (P07766 23-207 limits assumed): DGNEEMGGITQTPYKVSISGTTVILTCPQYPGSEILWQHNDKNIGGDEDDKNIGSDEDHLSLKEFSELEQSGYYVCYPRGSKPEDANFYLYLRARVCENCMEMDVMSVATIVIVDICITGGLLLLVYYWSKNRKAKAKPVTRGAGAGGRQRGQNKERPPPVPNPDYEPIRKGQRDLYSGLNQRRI
T5 sequence (Q95LI8 22-105, stated change not applied, one chain of several): as the sequence (P04234 22-105, stated change not applied, chain 2 of 2) above, with I5V, N15K, I20V, S32T, D33N, I34N, T64A, S74N, V83L counted along it

B1: aEpCAM × hOKT3 (MT110/AMG110) (bispecific antibody)
chain: MELVMTQSPSSLTVTAGEKVTMSCKSSQSLLNSGNQKNYLTWYQQKPGQPPKLLIYWASTRESGVPDRFTGSGSGTDFTLTISSVQAEDLAVYYCQNDYSYPLTFGAGTKLEIKGGGGSGGGGSGGGGSEVQLLEQSGAELVRPGTSVKISCKASGYAFTNYWLGWVKQRPGHGLEWIGDIFPGSGNIHYNEKFKGKATLTADKSSSTAYMQLSSLTFEDSAVYFCARLRNWDEPMDYWGQGTTVTVSSGGGGSDVQLVQSGAEVKKPGASVKVSCKASGYTFTRYTMHWVRQAPGQGLEWIGYINPSRGYTNYADSVKGRFTITTDKSTSTAYMELSSLRSEDTATYYCARYYDDHYCLDYWGQGTTVTVSSGEGTSTGSGGSGGSGGADDIVLTQSPATLSLSPGERATLSCRASQSVSYMNWYQQKPGKAPKRWIYDTSKVASGVPARFSGSGSGTDYSLTINSLEAEDAATYYCQQWSSNPLTFGGGTKVEIK
In the case of B1, in the assay with EpCAM on NCI-H1975 cells [1], the “Cell killing Donor #1 EC50 (pM)” value was 8.2 pM and the “Cell killing Donor #2 EC50 (pM)” value came out at 4.1 pM. Besides, in the assay with EpCAM on NCI-H1975 cells [2], the “T-cell mediated H1975 killing, EC50 (pM) Donor 1” value was 8 pM and the “T-cell mediated H1975 killing, EC50 (pM) Donor 2” value turned out to be 4 pM.

B2: SMP1913-F09 (antibody, V domains shown)
VH: not shown
VL: QTVVTQEPSLTVSPGGTVTLTCGSSTGAVTSGYYPNWFQQKPGQAPRGLIGGTKFLAPGTPARFSGSLLGGKAALTLSGVQPEDEAEYYCALWYSNRWVFGGGTQLTVTG
notes: human IgG1, lambda; also called hSP34-Hc1 + SP34-Lc3; hSP34-HC1+hSP34-LC3
Take B2: the EC50 in assay [3] worked out at 28.9 nM; with cynomolgus CD3 epsilon, 35.6 nM; with CD3-GE it was 1110 nM. Besides, the “ELISA Bmax (RLU)” value in assay [3] was 1.62e+06 RLU; with cynomolgus CD3 epsilon, 1.57e+06 RLU; with CD3-GE, 1.7e+06 RLU. For the same molecule, the “FACS S/N (Jurkat/Jurkat RT3-T3.5 binding)” value in [4] was found to be 6.2.

B3: SRP2037:A03 (scFv, not shown: small tags and cut ends)
scFv: EVQLVESGGGLVKPGGSLRLSCAASGFTFSKYAMNWVRQAPGKGLEWVARIRSKYNNYATYYADSVKDRFTISRDDSKNTAYLQINSLKTEDTAVYYCVRHGNFGNSYTSYWAYWGQGTPVTVSSGGGGSGGDGSGGGGSQTVVTQEPSLTVSPGGTVTLTCGSSTGAVTSGYYPNWLQQKPGQAPRGLIGGTKFLAPGTPARFSGSLLGGKAALTLSGVQPEDEAEYYCALWYSNRWVFGGGTQLTVT
notes: tested as scFvFc
In [5], B3 yielded a Bmax of 4540 and a Kd of 0.16 nM. Moreover, the “cyCD3DE/Fc, ELISA S/N” value in assay [6] is 62.1. For the same molecule, in [7], the Kd was determined as 1.23 nM and the koff was 0.000235 s⁻¹. Moreover, the “huCD3DE-Fc/Fc, ELISA S/N” value in assay [8] turned out to be 55.1.

B4: SRP2037:A05 (scFv, not shown: small tags and cut ends)
scFv: EVQLVESGGGLVKPGGSLRLSCAASGFTFNKYAMNWVRQAPGKGLEWVARIRSKYNNYATYYADSVKDRFTISRDDSRNTAYLQMNSLKAEDTAVYYCVRHGNFGNSYISYWAYWGQGTPVTVSSGGGGSGGDGSGGGGSQTVVTQEPSLTVSPGGTVTLTCGSSTGAVTSGYYPNWLQQKPGQAPRGLIGGTKFLAPGTPARFSGSLLGGKAALTLSGVQPEDEAEYYCALWYSNRWVFGGGTQLTVT
notes: tested as scFvFc
On to B4, for which, in [5], the Bmax was 5900 and the Kd came to 0.12 nM. For the same molecule, in assay [6], the “cyCD3DE/Fc, ELISA S/N” value stood at 28.9. In [7], the Kd worked out at 0.712 nM and the koff is 0.000157 s⁻¹. Moreover, in [8], the “huCD3DE-Fc/Fc, ELISA S/N” value worked out at 21.2.

B5: SRP2037:A04 (scFv, not shown: small tags and cut ends)
scFv: EVQLVESGGGLVKPGGSLRLSCAASGFTFNKYAMNWVRQAPGKGLEWVARIRSKYNNYATYYADSVKDRFTISRDDSKSTAYLQMNSLKTEDTAVYYCARHGNFGNSYISYWAYWGQGTPVTVSSGGGGSGGDGSGGGGSQTVVTQEPSLTVSPGGTVTLTCGSSTGAVTSGYHPNWLQQKPGQAPRGLIGGTKFLAPGTPARFSGSLLGGKAALTLSGVQPEDEAEYYCALWCSNRWVFGGGTQLTVT
notes: tested as scFvFc
For the molecule B5, in assay [5], the Bmax was determined as 4800 and the equilibrium dissociation constant (Kd) is 1.7 nM. Moreover, the “cyCD3DE/Fc, ELISA S/N” value in assay [6] is 19.3. In [7], this molecule showed a Kd of 0.367 nM and a koff of 3.27e-06 s⁻¹. In assay [8], the “huCD3DE-Fc/Fc, ELISA S/N” value was found to be 14.7.
